From publication PMC10295924 come the findings set out here.

For the test, the target named is SFB-β-catenin (UniProt P35222). The test can be described thus: pull-down; HEK293T cells co-transfected with MYC-LEF1, SFB-β-catenin and OTUD7B-V5 or GFP-V5, treated with 20 mM lithium chloride for 24 h; cytoplasmic and nuclear lysates pulled down with S-protein beads; immunoblot, bands quantified with ImageJ. In general terms: A western blot detects proteins with antibodies after separation by electrophoresis.
UniProt P35222, sequence (P35222 whole entry): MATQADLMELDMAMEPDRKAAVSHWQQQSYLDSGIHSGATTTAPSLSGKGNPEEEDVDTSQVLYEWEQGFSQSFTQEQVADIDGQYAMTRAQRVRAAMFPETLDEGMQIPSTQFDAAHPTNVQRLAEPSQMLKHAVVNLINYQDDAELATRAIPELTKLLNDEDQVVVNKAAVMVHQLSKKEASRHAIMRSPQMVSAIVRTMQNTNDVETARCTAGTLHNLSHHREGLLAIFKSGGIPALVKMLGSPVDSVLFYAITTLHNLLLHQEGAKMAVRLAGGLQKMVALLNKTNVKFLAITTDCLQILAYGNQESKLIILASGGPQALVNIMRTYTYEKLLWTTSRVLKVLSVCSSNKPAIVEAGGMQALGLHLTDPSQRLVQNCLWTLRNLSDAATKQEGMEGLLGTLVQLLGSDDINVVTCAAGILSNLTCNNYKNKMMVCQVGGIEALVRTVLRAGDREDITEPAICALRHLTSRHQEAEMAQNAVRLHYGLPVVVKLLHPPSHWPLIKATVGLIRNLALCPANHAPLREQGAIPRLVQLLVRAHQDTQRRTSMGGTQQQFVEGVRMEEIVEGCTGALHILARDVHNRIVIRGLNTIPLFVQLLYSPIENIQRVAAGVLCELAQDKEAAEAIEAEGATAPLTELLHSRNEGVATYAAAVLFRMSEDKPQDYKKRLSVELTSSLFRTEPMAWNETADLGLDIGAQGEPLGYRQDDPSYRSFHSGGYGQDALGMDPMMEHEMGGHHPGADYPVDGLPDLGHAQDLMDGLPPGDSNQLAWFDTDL

“MYC-LEF1 (Lymphoid enhancer-binding factor 1), full length (natural protein)” returned a fold increase of β-catenin-bound LEF1 in the nucleus with OTUD7B-V5 against GFP-V5 of 4.82 fold.
